# Measured values: US7867500B2, “Cofactor that modulates steroid receptor activities” (The United States of America as represented by the …, priority 2004, dated 2011)
# T1: glucocorticoid receptor (GR) (Rattus norvegicus, UniProt P06536)
# T1 sequence (P06536 1-795): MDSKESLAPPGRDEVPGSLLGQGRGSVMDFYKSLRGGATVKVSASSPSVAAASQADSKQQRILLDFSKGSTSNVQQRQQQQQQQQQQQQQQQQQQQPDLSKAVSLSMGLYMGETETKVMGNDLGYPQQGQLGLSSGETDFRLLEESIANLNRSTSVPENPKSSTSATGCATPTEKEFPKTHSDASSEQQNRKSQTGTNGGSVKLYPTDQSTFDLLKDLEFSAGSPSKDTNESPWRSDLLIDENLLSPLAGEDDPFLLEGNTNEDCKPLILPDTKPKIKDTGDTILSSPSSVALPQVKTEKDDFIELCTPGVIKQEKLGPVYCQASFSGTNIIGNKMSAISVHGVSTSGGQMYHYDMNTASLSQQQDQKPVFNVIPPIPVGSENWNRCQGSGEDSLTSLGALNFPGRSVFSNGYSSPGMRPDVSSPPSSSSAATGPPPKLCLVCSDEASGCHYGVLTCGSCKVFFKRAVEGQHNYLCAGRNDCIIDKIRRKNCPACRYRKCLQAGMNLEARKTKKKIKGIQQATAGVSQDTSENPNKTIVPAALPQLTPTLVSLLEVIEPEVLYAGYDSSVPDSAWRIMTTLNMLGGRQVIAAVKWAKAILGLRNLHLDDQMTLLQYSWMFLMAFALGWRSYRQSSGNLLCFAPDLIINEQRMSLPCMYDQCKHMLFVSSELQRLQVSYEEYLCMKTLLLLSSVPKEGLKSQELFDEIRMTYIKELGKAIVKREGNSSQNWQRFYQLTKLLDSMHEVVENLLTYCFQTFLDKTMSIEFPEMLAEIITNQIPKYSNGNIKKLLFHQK
# T2: GR (Rattus norvegicus, UniProt P06536)
# T2 construct: plus VP16 fused to the indicated full length receptors; expressed in transfected cells; host or cells: CV-1
# T2 sequence (P06536 1-795): T1 sequence (P06536 1-795)
# B1: 1127C: STAMP fragment amino acids 1127 to 1277, C-terminal part of the RID (protein)
# chain: TGVVPQHKYHPTAGSYQLQFALQQLEQQKLQSRQLLDQSRARHQAIFGSQTLPNSNLWTMNNGAGCRISSATASGQKPTTLPQKVVPPPSSCASLVPKPPPNHEQVLRRATSQKASKGSSAEGQLNGLQSSLNPAASVPITSSTDPAHTKI
# modifications: GAL4 DBD fusion
# notes: STAMP fragment amino acids 1127 to 1277, C-terminal part of the RID
# B2: GAL/N834: STAMP fragment amino acids 1-834, TTL domain and CID region (protein)
# chain: MARDLEETASSSEDEEVISQEDHPCIMWTGGCRRIPVLVFHADAILTKDNNIRVIGERYHLSYKIVRTDSRLVRSILTAHGFHEVHPSSTDYNLMWTGSHLKPFLLRTLSEAQKVNHFPRSYELTRKDRLYKNIIRMQHTHGFKVFHILPQTFLLPAEYAEFCNSYSKDRGPWIVKPVASSRGRGVYLINNPNQISLEENILVSRYINNPLLIDDFKFDVRLYVLVTSYDPLVIYLYEEGLARFATVRYDQGAKNIRNQFMHLTNYSVNKKSGDYVSCDDPEVEDYGNKWSMSAMLRYLKQEGRDTTALMAHVEDLIIKTIISAELAIATACKTFVPHRSSCFELYGFDVLIDSTLKPWLLEVNLSPSLACDAPLDLKIKASMISDMFTVVGFVCQDPAQRASTRPIYPTFESSRRNPFQKPQRCRPLSASDAEMKNLVGSAREKGPGKLGGSVLGLSMEEIKVLRRVKEENDRRGGFIRIFPTSETWEIYGSYLEHKTSMNYMLATRLFQDRMTADGAPELKIESLNSKAKLHAALYERKLLSLEVRKRRRRSSRLRAMRPKYPVITQPAEMNVKTETESEEEEEVALDNEDEEQEASQEESAGFLRENQAKYTPSLTALVENTPKENSMKVREWNNKGGHCCKLETQELEPKFNLMQILQDNGNLSKMQARIAFSAYLQHVQIRLMKDSGGQTFSASWAAKEDEQMELVVRFLKRASNNLQHSLRMVLPSRRLALLERRRILAHQLGDFIIVYNKETEQMAEKKSKKKVEEEEEDGVNMENFQEFIRQASEAELEEVLTFYTQKNKSASVFLGTHSKISKNNNNYSDSGAKG
# modifications: GAL4 DBD fusion
# notes: STAMP fragment amino acids 1-834, TTL domain and CID region
# B3: 956-1127: STAMP fragment amino acids 956 to 1127, portion of the RID region (protein)
# chain: LPRCRSGSHTIGPFSSFQSAAHIYSQKLSRPSSAKAGSCYLNKHHSGIAKTQKEGEDASLYSKRYNQSMVTAELQRLAEKQAARQYSPSSHINLLTQQVTNLNLATGIINRSSASAPPTLRPIISPSGPTWSTQSDPQAPENHSSSPGSRSLQTGGFAWEGEVENNVYSQAT
# modifications: GAL4 DBD fusion
# notes: STAMP fragment amino acids 956 to 1127, portion of the RID region
# B4: STAMP(834-956): STAMP fragment amino acids 834-956, N-terminal portion of the RID (protein)
# chain: GDHPETIMEEVKIKPPKQQQTTEIHSDKLSRFTTSAEKEAKLVYSNSSSGPTATLQKIPNTHLSSVTTSDLSPGPCHHSSLSQIPSAIPSMPHQPTILLNTVSASASPCLHPGAQNIPSPTGL
# modifications: GAL4 DBD fusion
# notes: STAMP fragment amino acids 834-956, N-terminal portion of the RID
# B5: STAMP623C: STAMP fragment amino acids 623 to 1277, CID and RID but no TTL domain (protein)
# chain: ENTPKENSMKVREWNNKGGHCCKLETQELEPKFNLMQILQDNGNLSKMQARIAFSAYLQHVQIRLMKDSGGQTFSASWAAKEDEQMELVVRFLKRASNNLQHSLRMVLPSRRLALLERRRILAHQLGDFIIVYNKETEQMAEKKSKKKVEEEEEDGVNMENFQEFIRQASEAELEEVLTFYTQKNKSASVFLGTHSKISKNNNNYSDSGAKGDHPETIMEEVKIKPPKQQQTTEIHSDKLSRFTTSAEKEAKLVYSNSSSGPTATLQKIPNTHLSSVTTSDLSPGPCHHSSLSQIPSAIPSMPHQPTILLNTVSASASPCLHPGAQNIPSPTGLPRCRSGSHTIGPFSSFQSAAHIYSQKLSRPSSAKAGSCYLNKHHSGIAKTQKEGEDASLYSKRYNQSMVTAELQRLAEKQAARQYSPSSHINLLTQQVTNLNLATGIINRSSASAPPTLRPIISPSGPTWSTQSDPQAPENHSSSPGSRSLQTGGFAWEGEVENNVYSQATGVVPQHKYHPTAGSYQLQFALQQLEQQKLQSRQLLDQSRARHQAIFGSQTLPNSNLWTMNNGAGCRISSATASGQKPTTLPQKVVPPPSSCASLVPKPPPNHEQVLRRATSQKASKGSSAEGQLNGLQSSLNPAASVPITSSTDPAHTKI
# Legend:
# [1] = tested on: GR repression of an AP-1 induced gene; assay: GR-mediated repression of PMA-induced AP-1/Luc reporter in U2OS.rGR cells; format: cell-based; settings: for fold repression of PMA-induced AP-1 expression by Dex-bound GR: 25 μM PMA ± 0.1 μM Dex, TIF2 20 ng, STAMP 100 ng plasmid
# Method: FIG. 5A-F illustrate STAMP modulation of GR-mediated repression. […] U2OS.rGR cells were transiently transfected with ±TIF2 (20 ng)±STAMP (100 ng) plasmids, AP-1/Luc reporter (20 ng), and Renilla control (10 ng) plasmid. The cells were induced with ethanol (EtOH) or 25 μM PMA±0.1 μM Dex. […] The average values±S.E.M. of four experiments are plotted. The numbers in parentheses above the bars labeled “PMA+Dex” represent the average fold repression caused by Dex± the various factors.
# FIG. 5B illustrates that functional TIF2 is needed for optimal STAMP activity. U2OS.rGR cells were transiently transfected and processed as described for FIG. 5A but less STAMP (50 ng) was used and two concentrations of TIF2 or TIF2m123 (10 and 20 ng) were employed. The average values±S.E.M. of 4-5 experiments are plotted. An asterisk indicates a significant difference (P≦0.031) between samples containing equal amounts of TIF2 and TIF2m123.
# Rogatsky et al. have reported that TIF2 augments GR repression of an AP-1 induced gene. […] The TIF2 domain identified as having TIF2 activity in GR repression was the same as used to isolate STAMP. In order to determine if STAMP was active in GR-mediated gene repression as well as induction, the ability of STAMP to increase the repressive activity of GR in the AP-1 responsive whole cell bioassay system was assessed using U2OS.rGR cells.
# [2] = target: T1, glucocorticoid receptor (GR); assay: GR-mediated induction of GREtkLUC reporter, transient transfection of CV-1 cells
# Method: Triplicate samples of CV-1 cells were transiently transfected with GR (6 ng)±TIF2 (20 ng)±STAMP (160 ng) plasmids, GREtkLUC reporter, and Renilla control plasmid. […] FIG. 4B illustrates the fold changes in GR induction parameters by STAMP and TIF2. […] The fold-increase in each parameter was determined as follows: for EC50s, fold increase=[EC50]GR/[EC50]GR+factor; for partial agonist activity and fold Dex induction, fold increase=activityGR+factor/activityGR). The average fold increases were then plotted±S.E.M (n=4).
# CV-1 cells were transiently transfected with GR (6 ng)±TIF2 (20 ng)±STAMP (160 ng) plasmids, GREtkLUC reporter, and Renilla control plasmid, and induced with ethanol± the indicated concentrations of Dex.
# Tests were run to determine whether exogenous STAMP can modulate the EC50 of glucocorticoids and the partial agonist activity of antiglucocorticoids in the transient transfection assays where GR induced gene expression from a GREtkLUC reporter.
# GR = target: T2, GR; assay: Mammalian two-hybrid assay in CV-1 cells with VP16/GR; format: cell-based; settings: VP16/GR ± 1 μM Dex
# Excerpt: FIGS. 6A and 6B illustrate the domains of STAMP that interact with TIF2.4 (FIG. 6A) and GR (FIG. 6B) in the mammalian two-hybrid assay. […] These CV-1 cells were also transfected with GAL fused to the indicated segments of STAMP along with the FRLuc reporter and Renilla control plasmids. After determining the relative luciferase activities as described in FIG. 2B and 2C, the average values±S.E.M. from 2-5 experiments were plotted. The average fold increase for VP16/TIF2.4 with GAL/STAMP(623-834) in FIG. 6A was 11.0±3.0 (SEM, n=5) above the VP16 control. The values in parentheses above the data bars in FIG. 6B indicate the fold increased interaction ±1 μM Dex.
# These assays were conducted as described (He et al., 2002). In particular, the recommended procedure for the Mammalian Matchmaker two-hybrid assay kit (Clontech) was modified slightly by changing from a chloramphenicol acetyltransferase reporter to a Luciferase Reporter pFRLuc (Stratagene), which is under the control of five repeats of the upstream activating sequence for the binding of GAL4.
# [3] = in the presence of transfected GR and TIF2
molecule,measurement,setting,value
TIF2: glucocorticoid receptor coactivator transcription intermediary factor-2,fold repression of PMA-induced AP-1 expression by Dex-bound GR,[1],about 9 fold
same,fold induction by PMA,"[1]; 25 μM PMA, no Dex",unchanged
same,effect on GR dose-response curve and induction parameters,[2]; TIF2 alone (FIG. 4A1),"similar, small effect"
C[C@@H]1C[C@H]2[C@@H]3CCC4=CC(=O)C=C[C@]4(C)[C@@]3(F)[C@@H](O)C[C@]2(C)[C@@]1(O)C(=O)CO [dexamethasone],fold repression of PMA-induced AP-1 expression by Dex-bound GR,[1],about 5 fold
B1,interaction with GR,GR,largest agonist-induced changes
B2,interaction with GR,GR,relative inactivity
B3,interaction with GR,GR,largest agonist-induced changes
B4,interaction with GR,GR,substantial ligand-independent association
B5,"ability to increase the partial agonist activity of Dex-Mes, retained",[2]; [3],40%
same,"capacity of full length STAMP to increase the fold induction with Dex, retained",[2]; [3],85%
